# In patent publication US20070280985A1:
# What was measured:
# Assay in all cases: cell-based or functional assay
# Connexin 37 (human) = Connexin 37 (human) (UniProt P35212)
# Connexin 43 (human) = Connexin 43 (human) (UniProt P17302)
# Connexin 40 (human) = Connexin 40 (human) (UniProt P36382)
# Sequence of UniProt P36382 (P36382 whole entry): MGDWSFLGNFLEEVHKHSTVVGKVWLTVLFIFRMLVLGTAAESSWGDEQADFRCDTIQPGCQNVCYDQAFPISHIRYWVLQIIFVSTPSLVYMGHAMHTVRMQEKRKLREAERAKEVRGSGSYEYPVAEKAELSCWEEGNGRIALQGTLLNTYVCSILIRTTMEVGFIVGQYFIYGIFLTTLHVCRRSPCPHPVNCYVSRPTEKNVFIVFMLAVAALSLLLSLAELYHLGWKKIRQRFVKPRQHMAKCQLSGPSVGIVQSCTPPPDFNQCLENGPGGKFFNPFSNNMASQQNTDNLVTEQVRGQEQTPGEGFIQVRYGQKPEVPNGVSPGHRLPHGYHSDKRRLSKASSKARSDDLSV
# Sequence of UniProt P35212 (P35212 whole entry): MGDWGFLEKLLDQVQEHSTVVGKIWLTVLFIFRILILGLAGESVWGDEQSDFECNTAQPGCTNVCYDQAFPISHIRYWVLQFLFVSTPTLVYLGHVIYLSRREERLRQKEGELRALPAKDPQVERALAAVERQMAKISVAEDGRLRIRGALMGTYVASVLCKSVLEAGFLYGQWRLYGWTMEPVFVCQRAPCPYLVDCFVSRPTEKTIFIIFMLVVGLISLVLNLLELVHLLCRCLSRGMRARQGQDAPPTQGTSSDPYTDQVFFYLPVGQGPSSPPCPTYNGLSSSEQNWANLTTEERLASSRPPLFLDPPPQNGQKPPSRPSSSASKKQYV
# Sequence of UniProt P17302 (P17302 2-382): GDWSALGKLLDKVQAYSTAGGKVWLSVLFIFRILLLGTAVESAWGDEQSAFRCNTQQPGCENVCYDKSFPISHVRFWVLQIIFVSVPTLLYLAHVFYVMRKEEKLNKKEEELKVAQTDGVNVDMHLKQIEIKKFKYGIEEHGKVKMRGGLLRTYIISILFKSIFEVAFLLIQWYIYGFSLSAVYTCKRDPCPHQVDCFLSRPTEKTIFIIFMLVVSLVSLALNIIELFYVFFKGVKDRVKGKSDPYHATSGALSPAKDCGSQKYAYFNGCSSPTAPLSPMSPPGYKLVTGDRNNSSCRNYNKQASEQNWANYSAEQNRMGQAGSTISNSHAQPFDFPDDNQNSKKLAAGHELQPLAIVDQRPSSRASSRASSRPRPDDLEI
Lucifer Yellow dye-coupling (GJIC) in HAEC after 16 hours of flow (Connexin 37 (human)),decrease in flow-induced GJIC (dye-coupling) in HAEC (Connexin 37 (human)),Lucifer Yellow dye-coupling (GJIC) in HAEC after 16 hours of flow (Connexin 43 (human)),decrease in flow-induced GJIC (dye-coupling) in HAEC (Connexin 43 (human)),decrease in Lucifer Yellow dye-coupling (GJIC) in HAEC after 5 hours of flow (Connexin 40 (human)),decrease in Lucifer Yellow dye-coupling (GJIC) in HAEC after 16 hours of flow (Connexin 40 (human)),Substance
26%,25%,26%,25%,,,"Cx mimetic peptide 43,37Gap27"
,,,,33%,57%,mimetic peptide 40Gap27
